Measurements reported in the supplement of paper PMC9170038.

Test system: MS2 coat protein
Assay: apparent KD of MS2 coat protein; designed switch direction (-1 OFF switch, 1 ON switch): -1; higher = weaker reporter binding
In short: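 On Illumina chips, designed RNA switches with common flanks were made by stalled E. coli RNA polymerase. Titrations with SNAP-549-labelled MS2 coat protein, doubling from 0.7 or 1.5 nM to 3 µM, were done with no input, with 200 uM small-molecule ligand, or with an oligonucleotide input. Apparent KD is the median per design over clusters, from curve fits of normalised cluster fluorescence.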

[1] = Eterna round: R95, input ligand: microRNA oligo, concentration not stated
[2] = Eterna round: R95, input ligand: FMN 200 uM
[3] = Eterna round: R95, input ligand: none
[4] = input ligand: microRNA oligo, concentration not stated

| Sequence | apparent KD of MS2 coat protein (input ligand: FMN 200 uM) [nM] | apparent KD of MS2 coat protein (input ligand: none) [nM] | apparent KD of MS2 coat protein [1] [nM] | apparent KD of MS2 coat protein [2] [nM] | apparent KD of MS2 coat protein [3] [nM] | apparent KD of MS2 coat protein [4] [nM] |
| --- | --- | --- | --- | --- | --- | --- |
| GGCGAAGUAGGAUAUACAUGAGGAUCACCCAUGUAACCUGAUGGCGUAGGUCUUCUAUGUAGAAGGACUACGCC [jl-ex3-4.39 ViennaUCT mod] (Eterna round: R97, puzzle: Exclusion 3) | 15.9 | 18.1 | – | – | – | – |
| CUCCUCCCGAAGGAUAUCCACGCCAACUUCGUAGGAGAAGGUCGGACAUGAGGAUCACCCAUGUGGCCAUGGUU [Gezateza] (puzzle: Exclusion 6) | – | – | 16 | – | – | – |
| CUCGGGAGUCAGGAUAUCGGCACAUAUCAAUCACGAGAAGGGACGACAUGAGGAUCACCCAUGUGGGAAAAGAA [Bivetilaza] (puzzle: Exclusion 6) | – | – | 38.1 | 92.9 | 41.7 | – |
| GAAUAGGCAGGAUAUACAUGAGGAUCACCCAUGUGCCGGCGAAAGGUACGUUCGAAAGGUAGAAGGGCCUAAAC [ChP 13.04.2015 #7] (puzzle: Exclusion 3) | – | – | 43.8 | 151 | 48.9 | – |
| UAAUAACAAGCGAGAUCCUACAUGAGGAUCACCCAUGUGCUCGUCUUAUAAAGUACUAUCACGAAAGUGAUAGUACA [Mat - Sensor v3 - turn-off var 1 - Eli Mod - D61] (puzzle: Sensor v3, turn-off variant 1) | – | – | 49.5 | 17.1 | 19.2 | – |
| GCUGGACAAGGAUAUAUAUGACGUGCUUCGGCACGAAGAUCACAUGAGGAUCACCCAUGUAGAAGGUGUCCAGC [E2/8-C2] (Eterna round: R97, puzzle: Exclusion 2) | 594 | 91.8 | – | – | – | – |
| AAGCAGUCAGGAUAUCGUUAAUUUAGUUGUUUGUAUUAGUUCGAGAAGGGACAUGAGGAUCACCCAUGUAAGAA [Ex4 #43] (Eterna round: R97, puzzle: Exclusion 4) | 40.5 | 41 | – | – | – | – |
| ACGCAUUGCCUUUGGUAGUGCGUAACAUGAGGAUCACCCAUGUAGGAUAUGGUAGGCAAAGCUUACCAGAAGGACAUAAUAAUU [Mat - Exclusion NG 3 - Mod of JL - D3] (Eterna round: R96, puzzle: Exclusion NG 3) | 73 | 32.7 | – | – | – | 31.4 |
| GUUAUGUCAGGAUAUGCUAAUGAUGAGUGCUCAGACAUGAUGCAGAAGGGACAUGAGGAUCACCCAUGUACUAA [EX4 #11] (Eterna round: R97, puzzle: Exclusion 4) | 116 | 36.1 | – | – | – | – |
| GUCUACGCAGGAUAUAUCCCUCAGGACAUGAGGAUCACCCAUGUCUCCUUAUGCCUUCCCAUAGAAGGGCGUAGAA [Eternabot (L1) Solution 82] (Eterna round: R97, puzzle: Exclusion 5) | 12.6 | 13.2 | – | – | – | – |
| ACAUGAGGAUCACCCAUGUGGGUUCUCCAGCAUAAUAAGAGGUAGGAUAUGCAGUCGCCGAAGGAGCAGAAGGACCGCGUUUAU [Eternabot solution 50] (Eterna round: R96, puzzle: Exclusion NG 3) | 67.1 | 43.5 | – | – | – | 29.7 |
| GGGCAAUUAGGAUAUACAUGAGGAUCACCCAUGUGGAAGCCCGGACAGGUAAUCCACUGUAGAAGGGAUUGCCA [Anareor] (puzzle: Exclusion 3) | – | – | 10.7 | – | – | – |
| ACGAAACAUGAGGAUCACCCAUGUGAGGAUAUGUAAAUAGUAAACAAAUAAGAAAUAAACAGAAGGCACACAGG [JR_Exclusion1_Sub004] (Eterna round: R96, puzzle: Exclusion 1) | – | – | – | – | – | 24.3 |
| UAUUAGUGAGGAUAUGGUAUAGAUAAGAUGAUGAAAGAACUCCAGAAGGCACAUGAGGAUCACCCAUGUAGUAG [JL-ex4-2.08 Jieux mod] (puzzle: Exclusion 4) | – | – | 23.7 | 20.4 | 20.9 | – |
| CUUUUUGUUGAGGAUAUGCACCAGCUCACUGACGCAGAAGGCGACACAUGAGGAUCACCCAUGUCAGUUCGCGU [salish99_ex6_r004_431] (Eterna round: R97, puzzle: Exclusion 6) | 21.5 | 16.8 | – | – | – | – |
| GGCAAACAUGAGGAUCACCCAUGUCAGGAUAUUAGGCGAUCGUCGAAAGACGAUAGCCUGAGAAGGGACAUGCC [Eli x1 4.16] (Eterna round: R97, puzzle: Exclusion 1) | 238 | 103 | – | – | – | – |
| GACAUGAGGAUCACCCAUGUAAGGGAUGAACUUCUGGGUAGCUAGGAUAUGGCUAUAAAGAUGGACCAGAAGGAGCGGACCCUA [Orlaveceat] (Eterna round: R96, puzzle: Exclusion NG 3) | 48.7 | 32.4 | – | – | – | 31.4 |

| Sequence | apparent KD of MS2 coat protein (input ligand: FMN 200 uM) [nM] | apparent KD of MS2 coat protein (input ligand: none) [nM] | apparent KD of MS2 coat protein [1] [nM] | apparent KD of MS2 coat protein [2] [nM] | apparent KD of MS2 coat protein [3] [nM] | apparent KD of MS2 coat protein [4] [nM] |
| --- | --- | --- | --- | --- | --- | --- |
| UACACCACAUGAGGAUCAAACAUGAGGAUCACCCAUGUAUAACAAGCUUUUUGCUCGUCUUAUAAAUAUGUGGUGUA [Electric Eye 5 - Jieux - Sensor, turn-off variant 1] (Eterna round: R97, puzzle: Sensor, turn-off variant 1) | 14.2 | 14.5 | – | – | – | – |
| UGCUAGUGAGGAUAUGCUGGAAUAAAGAUUUGACGUGGCGAACAUGAGGAUCACCCAUGUAGAAGGCACAAUAC [Ususedes] (puzzle: Exclusion 2) | – | – | 12.1 | – | – | – |
| AGACGAUCGUAGGAUAUCGGAAGGUCACUGGACUGAGAAGGACGAACAUGAGGAUCACCCAUGUGAUCUCUGGU [Eternabot (L2) Solution 43] (Eterna round: R97, puzzle: Exclusion 6) | 779 | 734 | – | – | – | – |
| CACCGUUAGUGAGGAUAUCUUACAUGAGGAUCACCCAUGUAAUAAAUGAGAAUUUCGGAUGUAUUAGAGAAGGCACAAAUCGGC [Ostricism 57 - Jieux - Exclusion NG 2] (Eterna round: R96, puzzle: Exclusion NG 2) | – | – | – | – | – | 17.7 |
| UCACACGGAGGAUAUACCGUCGGUCAUUGGUGUGACGUAUCACAUGAGGAUCACCCAUGUAGAAGGCCGUGCUU [Eternabot (L2) Solution 14] (Eterna round: R97, puzzle: Exclusion 2) | 394 | 208 | – | – | – | – |
| CCGCGUGUCGGACUGGGUUACAUGAGGAUCACCCAUGUUCGGUAAACUAAGCGUUUGCUCGUCUAAACCAUUCUCGA [Eternabot (Original) Solution 24] (Eterna round: R97, puzzle: Sensor, turn-off variant 1) | 175 | 205 | – | – | – | – |
| CGCUGGACAGGAUAUGUUCUUGGGCACUUGAGGAUCACCCAAGUCAUCGAGACAACAGGCACAGAAGGGUUUAUGG [salish99_ex5_r4_024] (Eterna round: R97, puzzle: Exclusion 5) | 30.7 | 38.4 | – | – | – | – |
| AGUACUAACACGUCGGUGUUAGUACAAUAAGCUUGUGAAACAUGAGGAUCACCCAUGUCCUCAUAAGCUCGUCUUAU [salish99_TOv2_r3_080] (puzzle: Sensor v3, turn-off variant 2) | – | – | 575 | 17.4 | 15.5 | – |
| AGAUAGUGGUGAGGAUAUGAGAAUAGAAAGAAAUCAGAAGGCACACAUGAGGAUCACCCAUGUGAGUUCUUGAGAUUACAUGGU [Prohibition 42 - Jieux - Exclusion NG 1] (Eterna round: R96, puzzle: Exclusion NG 1) | 22.6 | 15.4 | – | – | – | 11.3 |
| CGGUGUAGAGGAUAUACGUGGAUAUAAGAACAUGAUAAUUUACAUGAGGAUCACCCAUGUAGAAGGCUAUAGCG [JR_Ex2_Sub080] (Eterna round: R97, puzzle: Exclusion 2) | 74.8 | 207 | – | – | – | – |
| GCAGCUAGUUCAGGAUAUCAGCACGUGUAGUGCUGAGAAGGGAACAUGAGGAUCACCCAUGUGAUCAAUGCUGCAAUUUUAAUU [ENG1/12-A3] (Eterna round: R96, puzzle: Exclusion NG 1) | 780 | 2260 | – | – | – | 461 |
| GAGUGACAUGAGGAUCACCCAUGUAAGGAUAUACGGUUGGUAGAGAGAGGGCGAAAGGGUAGAAGGUACGAAGG [JR_Exclu1_Sub054] (puzzle: Exclusion 1) | – | – | 76 | 64.6 | 95.2 | – |
| ACAUGUAAUGCAGGAUAUUUGACACAUGAGGAUCACCCAUGUGACCAGAGGAAUUGCUAUGAGUCGAAGAAGGGUAUGUACAUG [Ex NG2 #55] (Eterna round: R96, puzzle: Exclusion NG 2) | 56.2 | 42.9 | – | – | – | 44.7 |
| GCCCUCGCUGAGGAUAUUAUCUGGCUCGACCGAUAAGAAGGCAGUACAUGAGGAUCACCCAUGUGGUUCGUUCG [Polaris46] (Eterna round: R97, puzzle: Exclusion 6) | 97.9 | 41 | – | – | – | – |
| GUCAUGAUUGUGAGGAUAUUUCAUAGAUAGAUGUUAGAGAAGGUACAUGAGGAUCACCCAUGUGUGAUCAGACA [Brourd's EX4 #74] (Eterna round: R97, puzzle: Brourd's mod of Exclusion 4) | 336 | 478 | – | – | – | – |
| UUAUUAUAUGUAGGAUAUGCAUAUUAUUAUUAUGCAGAAGGACAUGAGGAUCACCCAUGUAUGUUAUUAUUAUAUAUUAUAUAU [Title] (Eterna round: R96, puzzle: Exclusion NG 1) | – | – | – | – | – | 20.7 |
| ACAAGCUCUGUGGGUGGUGACAUGAGGAUCACCCAUGUUUUGCUCGUCUUGUGGGCCCGGGCCCGCGGCCCGGGCCC [-41.4, -70.3, A 12%] (Eterna round: R97, puzzle: Sensor, turn-off variant 1) | 516 | 978 | – | – | – | – |
